Each block holds one binder with its values, some of them ahead of it. Numbered stars: 1 amine (or outer) side, 2 acyl side, 3 side chain; on linkers, the order of the positions; unused ones are H or OH. Bridge positions count the residues as written; N and C are the ends. Square brackets hold non-standard residues; d marks the D form. Side chains are listed from the residue outwards. Ends that are not written are not given here. * marks the point of attachment. C20 diacid = O=C(O)CCCCCCCCCCCCCCCCCCC(=O)*; γGlu = O=C(O)[C@H](CCC(=O)[*:2])N[*:1]
Legend:
[1] = target: T1, human calcitonin receptor (human, UniProt P30988 25-474); assay: cell-based or functional assay
T1 sequence (looked up): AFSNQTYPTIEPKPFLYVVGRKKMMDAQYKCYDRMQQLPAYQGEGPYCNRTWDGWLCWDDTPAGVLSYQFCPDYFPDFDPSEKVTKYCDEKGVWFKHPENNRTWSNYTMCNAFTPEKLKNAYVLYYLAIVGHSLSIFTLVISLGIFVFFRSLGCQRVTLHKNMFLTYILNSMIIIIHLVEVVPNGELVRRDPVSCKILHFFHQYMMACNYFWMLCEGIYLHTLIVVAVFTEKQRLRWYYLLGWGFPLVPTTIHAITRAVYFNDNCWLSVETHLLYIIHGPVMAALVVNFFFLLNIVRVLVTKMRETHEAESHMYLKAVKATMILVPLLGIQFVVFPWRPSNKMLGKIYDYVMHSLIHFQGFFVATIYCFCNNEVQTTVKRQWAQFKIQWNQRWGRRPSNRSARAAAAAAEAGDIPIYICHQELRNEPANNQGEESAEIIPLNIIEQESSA

[2] = target: T2, human amylin receptor (amylin 3(a) receptor: human calcitonin receptor coexpressed with RAMP-3) (human, UniProt P30988 25-474; O60896 24-148); assay: cell-based or functional assay
T2 sequence (looked up) 1: T1 sequence (looked up)
T2 sequence (looked up) 2: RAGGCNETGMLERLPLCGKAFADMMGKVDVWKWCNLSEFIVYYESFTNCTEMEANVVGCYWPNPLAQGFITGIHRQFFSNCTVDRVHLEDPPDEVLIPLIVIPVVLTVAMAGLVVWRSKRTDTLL

hCTR funct. EC50 (pM) [1]: 100000 pM
hAmylin-R funct. EC50 (pM) [2]: 383 pM
B1: N^ε1-[(4S)-4-carboxy-4-[[(4S)-4-carboxy-4-(19-carboxynonadecanoylamino)butanoyl]amino]butanoyl]-[D-Asp14,Arg17,Pro21,Pro27,Arg35]-h-amylin (peptide)
peptide: K([γGlu-γGlu-C20 diacid])CNTATCATQRLA[dD]FLRHSSPNFGAIPSSTNVGSRTY-NH2
modifications: disulfide 2-7; N-terminus assumed
SMILES: CC[C@H](C)[C@H](NC(=O)[C@H](C)NC(=O)CNC(=O)[C@H](Cc1ccccc1)NC(=O)[C@H](CC(N)=O)NC(=O)[C@@H]1CCCN1C(=O)[C@H](CO)NC(=O)[C@H](CO)NC(=O)[C@H](Cc1c[nH]cn1)NC(=O)[C@H](CCCNC(=N)N)NC(=O)[C@H](CC(C)C)NC(=O)[C@H](Cc1ccccc1)NC(=O)[C@@H](CC(=O)O)NC(=O)[C@H](C)NC(=O)[C@H](CC(C)C)NC(=O)[C@H](CCCNC(=N)N)NC(=O)[C@H](CCC(N)=O)NC(=O)[C@@H](NC(=O)[C@H](C)NC(=O)[C@@H]1CSSC[C@H](NC(=O)[C@@H](N)CCCCNC(=O)CC[C@H](NC(=O)CC[C@H](NC(=O)CCCCCCCCCCCCCCCCCCC(=O)O)C(=O)O)C(=O)O)C(=O)N[C@@H](CC(N)=O)C(=O)N[C@@H]([C@@H](C)O)C(=O)N[C@@H](C)C(=O)N[C@@H]([C@@H](C)O)C(=O)N1)[C@@H](C)O)C(=O)N1CCC[C@H]1C(=O)N[C@@H](CO)C(=O)N[C@@H](CO)C(=O)N[C@H](C(=O)N[C@@H](CC(N)=O)C(=O)N[C@H](C(=O)NCC(=O)N[C@@H](CO)C(=O)N[C@@H](CCCNC(=N)N)C(=O)N[C@H](C(=O)N[C@@H](Cc1ccc(O)cc1)C(N)=O)[C@@H](C)O)C(C)C)[C@@H](C)O
notes: Residue 14 is D-aspartic acid (printed 14d)

Ratio hCT/hAmylin funct. [1]: 16.4
hCTR funct. EC50 (pM) [1]: 2830 pM
hAmylin-R funct. EC50 (pM) [2]: 172 pM
Binder: K([γGlu-γGlu-C20 diacid])CNTATCATQRLAEFLRHSSPNFGAIPSSTNVGPHTY-NH2 (disulfide 2-7 (inferred))

hCTR funct. EC50 (pM) [1]: 11200 pM
hAmylin-R funct. EC50 (pM) [2]: 404 pM
B2: N^ε1-[(4S)-4-carboxy-4-[[(4S)-4-carboxy-4-(19-carboxynonadecanoylamino)butanoyl]amino]butanoyl]-[Glu14,Arg17,Pro21,Pro27,Arg35]-h-amylin (peptide)
peptide: K([γGlu-γGlu-C20 diacid])CNTATCATQRLAEFLRHSSPNFGAIPSSTNVGSRTY-NH2
modifications: disulfide 2-7; N-terminus assumed
SMILES: CC[C@H](C)[C@H](NC(=O)[C@H](C)NC(=O)CNC(=O)[C@H](Cc1ccccc1)NC(=O)[C@H](CC(N)=O)NC(=O)[C@@H]1CCCN1C(=O)[C@H](CO)NC(=O)[C@H](CO)NC(=O)[C@H](Cc1c[nH]cn1)NC(=O)[C@H](CCCNC(=N)N)NC(=O)[C@H](CC(C)C)NC(=O)[C@H](Cc1ccccc1)NC(=O)[C@H](CCC(=O)O)NC(=O)[C@H](C)NC(=O)[C@H](CC(C)C)NC(=O)[C@H](CCCNC(=N)N)NC(=O)[C@H](CCC(N)=O)NC(=O)[C@@H](NC(=O)[C@H](C)NC(=O)[C@@H]1CSSC[C@H](NC(=O)[C@@H](N)CCCCNC(=O)CC[C@H](NC(=O)CC[C@H](NC(=O)CCCCCCCCCCCCCCCCCCC(=O)O)C(=O)O)C(=O)O)C(=O)N[C@@H](CC(N)=O)C(=O)N[C@@H]([C@@H](C)O)C(=O)N[C@@H](C)C(=O)N[C@@H]([C@@H](C)O)C(=O)N1)[C@@H](C)O)C(=O)N1CCC[C@H]1C(=O)N[C@@H](CO)C(=O)N[C@@H](CO)C(=O)N[C@H](C(=O)N[C@@H](CC(N)=O)C(=O)N[C@H](C(=O)NCC(=O)N[C@@H](CO)C(=O)N[C@@H](CCCNC(=N)N)C(=O)N[C@H](C(=O)N[C@@H](Cc1ccc(O)cc1)C(N)=O)[C@@H](C)O)C(C)C)[C@@H](C)O
notes: also called compound 89

Ratio hCT/hAmylin funct. [1]: 15.8
hCTR funct. EC50 (pM) [1]: 7050 pM
hAmylin-R funct. EC50 (pM) [2]: 445 pM
B3: N^ε1-[(4S)-4-carboxy-4-[[(4S)-4-carboxy-4-(19-carboxynonadecanoylamino)butanoyl]amino]butanoyl]-[Glu14,Arg17,Pro21,Pro27,His34,Glu35]-h-amylin (peptide)
peptide: K([γGlu-γGlu-C20 diacid])CNTATCATQRLAEFLRHSSPNFGAIPSSTNVGHETY-NH2
modifications: disulfide 2-7; N-terminus assumed
SMILES: CC[C@H](C)[C@H](NC(=O)[C@H](C)NC(=O)CNC(=O)[C@H](Cc1ccccc1)NC(=O)[C@H](CC(N)=O)NC(=O)[C@@H]1CCCN1C(=O)[C@H](CO)NC(=O)[C@H](CO)NC(=O)[C@H](Cc1c[nH]cn1)NC(=O)[C@H](CCCNC(=N)N)NC(=O)[C@H](CC(C)C)NC(=O)[C@H](Cc1ccccc1)NC(=O)[C@H](CCC(=O)O)NC(=O)[C@H](C)NC(=O)[C@H](CC(C)C)NC(=O)[C@H](CCCNC(=N)N)NC(=O)[C@H](CCC(N)=O)NC(=O)[C@@H](NC(=O)[C@H](C)NC(=O)[C@@H]1CSSC[C@H](NC(=O)[C@@H](N)CCCCNC(=O)CC[C@H](NC(=O)CC[C@H](NC(=O)CCCCCCCCCCCCCCCCCCC(=O)O)C(=O)O)C(=O)O)C(=O)N[C@@H](CC(N)=O)C(=O)N[C@@H]([C@@H](C)O)C(=O)N[C@@H](C)C(=O)N[C@@H]([C@@H](C)O)C(=O)N1)[C@@H](C)O)C(=O)N1CCC[C@H]1C(=O)N[C@@H](CO)C(=O)N[C@@H](CO)C(=O)N[C@H](C(=O)N[C@@H](CC(N)=O)C(=O)N[C@H](C(=O)NCC(=O)N[C@@H](Cc1c[nH]cn1)C(=O)N[C@@H](CCC(=O)O)C(=O)N[C@H](C(=O)N[C@@H](Cc1ccc(O)cc1)C(N)=O)[C@@H](C)O)C(C)C)[C@@H](C)O

— patent publication US20140087995A1 (published 2014)
